From publication PMC6954272, “Structure and dynamics of the E. coli chemotaxis core signaling complex by cryo-electron tomography and molecular simulations” (Communications Biology, 2020) come the findings set out here.

The target of data set [1] is His6-tagged 4Q variant of the cytoplasmic fragment of the E. coli aspartate receptor Tar (His6-TarCF4Q) (E. coli) (UniProt P07017). The experiment in a line: cryo-EM structure; cryo-electron tomography and sub-tomogram averaging of arrays reconstituted in vitro; His6-TarCF held on a Ni2+-NTA lipid monolayer; 9:18:18 µM TarCF:CheA:CheW; 75 mM Tris-HCl pH 7.4, 100 mM KCl, 5 mM MgCl2; overnight.

Data set [2] concerns the molecule itself. The description is as above.

With “His6-tagged 4Q variant of the cytoplasmic fragment of the E. coli aspartate receptor Tar (His6-TarCF4Q) (from UniProt P07017 357-553) (domain or fragment)”, in data set [1], the stoichiometry N was found to be 6.

B1: E. coli adaptor protein CheW (natural protein)
chain: MTGMTNVTKLASEPSGQEFLVFTLGDEEYGIDILKVQEIRGYDQVTRIANTPAFIKGVTNLRGVIVPIVDLRIKFSQVDVDYNDNTVVIVLNLGQRVVGIVVDGVSDVLSLTAEQIRPAPEFAVTLSTEYLTGLGALGDRMLILVNIEKLLNSEEMALLDSAASEVA
Consider B1, for which the stoichiometry N (CheW per receptor trimer-of-dimers (TOD)) in data set [1] was found to be 2.

B2: E. coli histidine kinase CheA, domains P3-P4-P5 (P1-P2 deleted) (domain or fragment, UniProt P07363 264-654, looked up)
chain: IRVAVEKVDQLINLVGELVITQSMLAQRSSELDPVNHGDLITSMGQLQRNARDLQESVMSIRMMPMEYVFSRYPRLVRDLAGKLGKQVELTLVGSSTELDKSLIERIIDPLTHLVRNSLDHGIELPEKRLAAGKNSVGNLILSAEHQGGNICIEVTDDGAGLNRERILAKAASQGLTVSENMSDDEVAMLIFAPGFSTAEQVTDVSGRGVGMDVVKRNIQKMGGHVEIQSKQGTGTTIRILLPLTLAILDGMSVRVADEVFILPLNAVMESLQPREADLHPLAGGERVLEVRGEYLPIVELWKVFNVAGAKTEATQGIVVILQSGGRRYALLVDQLIGQHQVVVKNLESNYRKVPGISAATILGDGSVALIVDVSALQAINREQRMANTAA
notes: Histidine kinase CheA, E. coli, domains P3, P4 and P5 (pQM12: based on pKJ9 with del P1-P2); the atomic model covers residues 264-646; The methods also name pKJ9 (full-length CheA); the results say that CheA.P3-P4-P5 stood in the monolayer arrays; also called CheA.P3-P4-P5; CheA.P3.P4.P5; source: E. coli RP3098, plasmid pQM12, purified (Affi-gel Blue, Superdex 200, Mono Q)
Molecule B2 gave a stoichiometry N (CheA per receptor trimer-of-dimers (TOD)) in data set [1] of 1. For the same molecule, the “stoichiometry N” value in data set [2] amounted to 2.

By stoichiometry N is commonly meant a count of units in the complex or per binding partner.
